{"source": "the supplement of paper PMC9112550", "about": "“Optimization of the antimicrobial peptide Bac7 by deep mutational scanning” (BMC Biology, 2022);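 also: peptides expressed intracellularly from a pBAD plasmid library in pooled LB shake-flask culture, induced with 0.3% L-arabinose, DNA abundance read by NGS, three biological replicates, DESeq2 with apeglm shrinkage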", "data": [{"test_system": "Escherichia coli TOP10", "experiment": "shrunken log2 fold change of peptide-encoding DNA abundance (4.5 h post-induction vs induction); higher = less antimicrobial activity (less host growth inhibition)", "conditions": "time post-induction: 4.5 h; library: site-saturation at positions 5, 18, 19, 20", "values": [{"sequence": "RRIRKRPPRLPRPRPRPAWSPRP", "shrunken log2 fold change": 0.202}, {"sequence": "RRIRKRPPRLPRPRPRPAYRPRP", "shrunken log2 fold change": 0.0954}, {"sequence": "RRIRKRPPRLPRPRPRPAYVPRP", "shrunken log2 fold change": 0.108}, {"sequence": "RRIRKRPPRLPRPRPRPCAAPRP", "shrunken log2 fold change": 0.421}, {"sequence": "RRIRKRPPRLPRPRPRPCCMPRP", "shrunken log2 fold change": 0.103}, {"sequence": "RRIRKRPPRLPRPRPRPCCNPRP", "shrunken log2 fold change": 0.0185}, {"sequence": "RRIRKRPPRLPRPRPRPCDPPRP", "shrunken log2 fold change": 0.121}, {"sequence": "RRIRKRPPRLPRPRPRPCDVPRP", "shrunken log2 fold change": 0.0144}, {"sequence": "RRIRKRPPRLPRPRPRPCFIPRP", "shrunken log2 fold change": -0.13}, {"sequence": "RRIRKRPPRLPRPRPRPCGPPRP", "shrunken log2 fold change": -0.0191}, {"sequence": "RRIRKRPPRLPRPRPRPCHAPRP", "shrunken log2 fold change": 0.384}, {"sequence": "RRIRKRPPRLPRPRPRPCHRPRP", "shrunken log2 fold change": 0.00781}, {"sequence": "RRIRKRPPRLPRPRPRPCHTPRP", "shrunken log2 fold change": 0.0319}, {"sequence": "RRIRKRPPRLPRPRPRPCHVPRP", "shrunken log2 fold change": -0.203}, {"sequence": "RRIRKRPPRLPRPRPRPCIMPRP", "shrunken log2 fold change": 1.3}, {"sequence": "RRIRKRPPRLPRPRPRPCIVPRP", "shrunken log2 fold change": -0.286}, {"sequence": "RRIRKRPPRLPRPRPRPCKWPRP", "shrunken log2 fold change": 0.0523}, {"sequence": "RRIRKRPPRLPRPRPRPCMLPRP", "shrunken log2 fold change": -0.245}, {"sequence": "RRIRKRPPRLPRPRPRPCNSPRP", "shrunken log2 fold change": -0.0179}, {"sequence": "RRIRKRPPRLPRPRPRPCPIPRP", "shrunken log2 fold change": -0.212}, {"sequence": "RRIRKRPPRLPRPRPRPCQDPRP", "shrunken log2 fold change": 0.0115}, {"sequence": "RRIRKRPPRLPRPRPRPCSAPRP", "shrunken log2 fold change": -0.0728}, {"sequence": "RRIRKRPPRLPRPRPRPCSIPRP", "shrunken log2 fold change": 0.11}, {"sequence": "RRIRKRPPRLPRPRPRPCSKPRP", "shrunken log2 fold change": -0.01}, {"sequence": "RRIRKRPPRLPRPRPRPCSLPRP", "shrunken log2 fold change": -0.529}, {"sequence": "RRIRKRPPRLPRPRPRPCSVPRP", "shrunken log2 fold change": 0.0108}, {"sequence": "RRIRKRPPRLPRPRPRPCSYPRP", "shrunken log2 fold change": -0.0348}, {"sequence": "RRIRKRPPRLPRPRPRPCTAPRP", "shrunken log2 fold change": 0.383}, {"sequence": "RRIRKRPPRLPRPRPRPCTQPRP", "shrunken log2 fold change": -0.0701}, {"sequence": "RRIRKRPPRLPRPRPRPCVYPRP", "shrunken log2 fold change": 0.109}, {"sequence": "RRIRKRPPRLPRPRPRPCWVPRP", "shrunken log2 fold change": 0.259}, {"sequence": "RRIRKRPPRLPRPRPRPCWYPRP", "shrunken log2 fold change": -0.139}, {"sequence": "RRIRKRPPRLPRPRPRPDAGPRP", "shrunken log2 fold change": -0.034}, {"sequence": "RRIRKRPPRLPRPRPRPDAQPRP", "shrunken log2 fold change": 1.59}, {"sequence": "RRIRKRPPRLPRPRPRPDAVPRP", "shrunken log2 fold change": 0.698}, {"sequence": "RRIRKRPPRLPRPRPRPDCKPRP", "shrunken log2 fold change": -0.0333}, {"sequence": "RRIRKRPPRLPRPRPRPDEFPRP", "shrunken log2 fold change": 1.24}, {"sequence": "RRIRKRPPRLPRPRPRPDEIPRP", "shrunken log2 fold change": 0.0203}, {"sequence": "RRIRKRPPRLPRPRPRPDERPRP", "shrunken log2 fold change": -0.00101}, {"sequence": "RRIRKRPPRLPRPRPRPDFDPRP", "shrunken log2 fold change": -0.183}, {"sequence": "RRIRKRPPRLPRPRPRPDFGPRP", "shrunken log2 fold change": 0.052}, {"sequence": "RRIRKRPPRLPRPRPRPDGGPRP", "shrunken log2 fold change": 0.157}, {"sequence": "RRIRKRPPRLPRPRPRPDGKPRP", "shrunken log2 fold change": 0.0268}, {"sequence": "RRIRKRPPRLPRPRPRPDGRPRP", "shrunken log2 fold change": 0.0261}, {"sequence": "RRIRKRPPRLPRPRPRPDGTPRP", "shrunken log2 fold change": 0.293}, {"sequence": "RRIRKRPPRLPRPRPRPDIFPRP", "shrunken log2 fold change": -0.178}, {"sequence": "RRIRKRPPRLPRPRPRPDLGPRP", "shrunken log2 fold change": 0.0986}, {"sequence": "RRIRKRPPRLPRPRPRPDLMPRP", "shrunken log2 fold change": 0.0729}, {"sequence": "RRIRKRPPRLPRPRPRPDMEPRP", "shrunken log2 fold change": 0.092}, {"sequence": "RRIRKRPPRLPRPRPRPDPGPRP", "shrunken log2 fold change": 0.335}, {"sequence": "RRIRKRPPRLPRPRPRPDPNPRP", "shrunken log2 fold change": 0.0802}, {"sequence": "RRIRKRPPRLPRPRPRPDPRPRP", "shrunken log2 fold change": 1.19}, {"sequence": "RRIRKRPPRLPRPRPRPDSGPRP", "shrunken log2 fold change": -0.00213}, {"sequence": "RRIRKRPPRLPRPRPRPDTPPRP", "shrunken log2 fold change": 0.546}, {"sequence": "RRIRKRPPRLPRPRPRPDWYPRP", "shrunken log2 fold change": -0.149}, {"sequence": "RRIRKRPPRLPRPRPRPDYVPRP", "shrunken log2 fold change": -0.0105}, {"sequence": "RRIRKRPPRLPRPRPRPECWPRP", "shrunken log2 fold change": 0.744}, {"sequence": "RRIRKRPPRLPRPRPRPEEIPRP", "shrunken log2 fold change": 0.00253}, {"sequence": "RRIRKRPPRLPRPRPRPEFKPRP", "shrunken log2 fold change": 0.165}, {"sequence": "RRIRKRPPRLPRPRPRPEGHPRP", "shrunken log2 fold change": 0.0594}, {"sequence": "RRIRKRPPRLPRPRPRPEHAPRP", "shrunken log2 fold change": 1.12}, {"sequence": "RRIRKRPPRLPRPRPRPEHQPRP", "shrunken log2 fold change": 0.163}, {"sequence": "RRIRKRPPRLPRPRPRPEKNPRP", "shrunken log2 fold change": 0.987}, {"sequence": "RRIRKRPPRLPRPRPRPELAPRP", "shrunken log2 fold change": 2.83}, {"sequence": "RRIRKRPPRLPRPRPRPENYPRP", "shrunken log2 fold change": -0.0275}, {"sequence": "RRIRKRPPRLPRPRPRPEPRPRP", "shrunken log2 fold change": 0.991}, {"sequence": "RRIRKRPPRLPRPRPRPEQVPRP", "shrunken log2 fold change": 0.158}, {"sequence": "RRIRKRPPRLPRPRPRPERVPRP", "shrunken log2 fold change": 0.281}, {"sequence": "RRIRKRPPRLPRPRPRPESFPRP", "shrunken log2 fold change": 0.0651}, {"sequence": "RRIRKRPPRLPRPRPRPETWPRP", "shrunken log2 fold change": 0.0991}, {"sequence": "RRIRKRPPRLPRPRPRPEVDPRP", "shrunken log2 fold change": 3.04}, {"sequence": "RRIRKRPPRLPRPRPRPEVHPRP", "shrunken log2 fold change": 0.013}, {"sequence": "RRIRKRPPRLPRPRPRPEWFPRP", "shrunken log2 fold change": 0.219}, {"sequence": "RRIRKRPPRLPRPRPRPEYCPRP", "shrunken log2 fold change": 0.109}, {"sequence": "RRIRKRPPRLPRPRPRPEYFPRP", "shrunken log2 fold change": 0.084}, {"sequence": "RRIRKRPPRLPRPRPRPEYSPRP", "shrunken log2 fold change": 0.0499}, {"sequence": "RRIRKRPPRLPRPRPRPFFHPRP", "shrunken log2 fold change": 0.203}, {"sequence": "RRIRKRPPRLPRPRPRPFFLPRP", "shrunken log2 fold change": 0.225}, {"sequence": "RRIRKRPPRLPRPRPRPFFYPRP", "shrunken log2 fold change": 0.0957}, {"sequence": "RRIRKRPPRLPRPRPRPFGEPRP", "shrunken log2 fold change": 0.365}, {"sequence": "RRIRKRPPRLPRPRPRPFGGPRP", "shrunken log2 fold change": -0.043}, {"sequence": "RRIRKRPPRLPRPRPRPFKDPRP", "shrunken log2 fold change": -0.0776}, {"sequence": "RRIRKRPPRLPRPRPRPFLAPRP", "shrunken log2 fold change": 0.169}, {"sequence": "RRIRKRPPRLPRPRPRPFLHPRP", "shrunken log2 fold change": -0.0903}, {"sequence": "RRIRKRPPRLPRPRPRPFMHPRP", "shrunken log2 fold change": 0.0291}, {"sequence": "RRIRKRPPRLPRPRPRPFNAPRP", "shrunken log2 fold change": 0.0749}, {"sequence": "RRIRKRPPRLPRPRPRPFNVPRP", "shrunken log2 fold change": -0.172}, {"sequence": "RRIRKRPPRLPRPRPRPFPFPRP", "shrunken log2 fold change": -0.255}, {"sequence": "RRIRKRPPRLPRPRPRPFPYPRP", "shrunken log2 fold change": -0.135}, {"sequence": "RRIRKRPPRLPRPRPRPFQFPRP", "shrunken log2 fold change": -0.018}, {"sequence": "RRIRKRPPRLPRPRPRPFTDPRP", "shrunken log2 fold change": -0.091}, {"sequence": "RRIRKRPPRLPRPRPRPFTEPRP", "shrunken log2 fold change": 0.0246}, {"sequence": "RRIRKRPPRLPRPRPRPFTNPRP", "shrunken log2 fold change": -0.0844}, {"sequence": "RRIRKRPPRLPRPRPRPFVRPRP", "shrunken log2 fold change": 0.00981}, {"sequence": "RRIRKRPPRLPRPRPRPFWFPRP", "shrunken log2 fold change": 0.247}, {"sequence": "RRIRKRPPRLPRPRPRPFWVPRP", "shrunken log2 fold change": -0.175}, {"sequence": "RRIRKRPPRLPRPRPRPFYYPRP", "shrunken log2 fold change": -0.587}, {"sequence": "RRIRKRPPRLPRPRPRPGCGPRP", "shrunken log2 fold change": 0.761}, {"sequence": "RRIRKRPPRLPRPRPRPGCKPRP", "shrunken log2 fold change": 0.189}, {"sequence": "RRIRKRPPRLPRPRPRPGCRPRP", "shrunken log2 fold change": 0.654}, {"sequence": "RRIRKRPPRLPRPRPRPGDTPRP", "shrunken log2 fold change": 0.0879}, {"sequence": "RRIRKRPPRLPRPRPRPGETPRP", "shrunken log2 fold change": 0.476}, {"sequence": "RRIRKRPPRLPRPRPRPGFFPRP", "shrunken log2 fold change": 0.786}, {"sequence": "RRIRKRPPRLPRPRPRPGFKPRP", "shrunken log2 fold change": -0.0198}, {"sequence": "RRIRKRPPRLPRPRPRPGFTPRP", "shrunken log2 fold change": 0.0173}, {"sequence": "RRIRKRPPRLPRPRPRPGFWPRP", "shrunken log2 fold change": 0.537}, {"sequence": "RRIRKRPPRLPRPRPRPGHAPRP", "shrunken log2 fold change": 0.667}, {"sequence": "RRIRKRPPRLPRPRPRPGIQPRP", "shrunken log2 fold change": 0.0822}, {"sequence": "RRIRKRPPRLPRPRPRPGLIPRP", "shrunken log2 fold change": 0.13}]}]}
